Measured values from the supplement of paper PMC12458215.
± gives the uncertainty stated by the source.

test system: HEK293T; experiment: plasma membrane surface immunostaining intensity (anti-HA, deep receptor scanning) (arbitrary fluorescence units); higher = higher plasma membrane expression; conditions: GPCR class: A

Row | Sequence | plasma membrane surface immunostaining intensity
1 | MEDFNMESDSFEDFWKGEDLSNYSYSSTLPPFLLDAAPCEPESLEINKYFVVIIYALVFLLSLLGNSLVMLVILYSRVGRSVTDVYLLNLALADLLFALTLPIWAASKVNGWIFGTFLCKVVSLLKEVNFYSGILLLACISVDRYLAIVHATRTLTQKRYLVKFICLSIWGLSLLLALPVLLFRRTVYSSNVSPACYEDMGNNTANWRMLLRILPQSFGFIVPLLIMLFCYGFTLRTLFKAHMGQKHRAMRVIFAVVLIFLLCWLPYNLVLLADTLMRTQVIQETCERRNHIDRALDATEILGILHSCLNPLIYAFIGQKFRHGLLKILAIHGLISKDSLPKDSRPSFVGSSSGHTSTTL [CXCR2] | 266 ± 3.4
2 | MEDLEETLFEEFENYSYDLDYYSLESDLEEKVQLGVVHWVSLVLYCLAFVLGIPGNAIVIWFTGFKWKKTVTTLWFLNLAIADFIFLLFLPLYISYVAMNFHWPFGIWLCKANSFTAQLNMFASVFFLTVISLDHYIHLIHPVLSHRHRTLKNSLIVIIFIWLLASLIGGPALYFRDTVEFNNHTLCYNNFQKHDPDLTLIRHHVLTWVKFIIGYLFPLLTMSICYLCLIFKVKKRSILISSRHFWTILVVVVAFVVCWTPYHLFSIWELTIHHNSYSHHVMQAGIPLSTGLAFLNSCLNPILYVLISKKFQARFRSSVAEILKYTLWEVSCSGTVSEQLRNSETKNLCLLETAQ [CMKLR2] | 510 ± 52
3 | MEEGGDFDNYYGADNQSECEYTDWKSSGALIPAIYMLVFLLGTTGNGLVLWTVFRSSREKRRSADIFIASLAVADLTFVVTLPLWATYTYRDYDWPFGTFFCKLSSYLIFVNMYASVFCLTGLSFDRYLAIVRPVANARLRLRVSGAVATAVLWVLAALLAMPVMVLRTTGDLENTTKVQCYMDYSMVATVSSEWAWEVGLGVSSTTVGFVVPFTIMLTCYFFIAQTIAGHFRKERIEGLRKRRRLLSIIVVLVVTFALCWMPYHLVKTLYMLGSLLHWPCDFDLFLMNIFPYCTCISYVNSCLNPFLYAFFDPRFRQACTSMLCCGQSRCAGTSHSSSGEKSASYSSGHSQGPGPNMGKGGEQMHEKSIPYSQETLVVD [APLNR] | 6400 ± 84
4 | MEGALAANWSAEAANASAAPPGAEGNRTAGPPRRNEALARVEVAVLCLILLLALSGNACVLLALRTTRQKHSRLFFFMKHLSIADLVVAVFQVLPQLLWDITFRFYGPDLLCRLVKYLQVVGMFASTYLLLLMSLDRCLAICQPLRSLRRRTDRLAVLATWLGCLVASAPQVHIFSLREVADGVFDCWAVFIQPWGPKAYITWITLAVYIVPVIVLAACYGLISFKIWQNLRLKTAAAAAAEAPEGAAAGDGGRVALARVSSVKLISKAKIRTVKMTFIIVLAFIVCWTPFFFVQMWSVWDANAPKEASAFIIVMLLASLNSCCNPWIYMLFTGHLFHELVQRFLCCSASYLKGRRLGETSASKKSNSSSFVLSHRSSSQRSCSQPSTA [OXTR] | 5390 ± 230
5 | MEGDSYHNATTVNGTPVNHQPLERHRLWEVITIAAVTAVVSLITIVGNVLVMISFKVNSQLKTVNNYYLLSLACADLIIGIFSMNLYTTYILMGRWALGSLACDLWLALDYVASNASVMNLLVISFDRYFSITRPLTYRAKRTPKRAGIMIGLAWLISFILWAPAILCWQYLVGKRTVPLDECQIQFLSEPTITFGTAIAAFYIPVSVMTILYCRIYRETEKRTKDLADLQGSDSVTKAEKRKPAHRALFRSCLRCPRPTLAQRERNQASWSSSRRSTSTTGKPSQATGPSANWAKAEQLTTCSSYPSSEDEDKPATDPVLQVVYKSQGKESPGEEFSAEETEETFVKAETEKSDYDTPNYLLSPAAAHRPKSQKCVAYKFRLVVKADGNQETNNGCHKVKIMPCPFPVAKEPSTKGLNPNPSHQMTKRKRVVLVKERKAAQTLSAILLAFIITWTPYNIMVLVSTFCDKCVPVTLWHLGYWLCYVNSTVNPICYALCNRTFRKTFKMLLLCRWKKKKVEEKLYWQGNSKLP [CHRM5] | 1470 ± 190
6 | MEGISIYTSDNYTEEMGSGDYDSMKEPCFREENANFNKIFLPTIYSIIFLTGIVGNGLVILVMGYQKKLRSMTDKYRLHLSVADLLFVITLPFWAVDAVANWYFGNFLCKAVHVIYTVNLYSSVLILAFISLDRYLAIVHATNSQRPRKLLAEKVVYVGVWIPALLLTIPDFIFANVSEADDRYICDRFYPNDLWVVVFQFQHIMVGLILPGIVILSCYCIIISKLSHSKGHQKRKALKTTVILILAFFACWLPYYIGISIDSFILLEIIKQGCEFENTVHKWISITEALAFFHCCLNPILYAFLGAKFKTSAQHALTSVSRGSSLKILSKGKRGGHSSVSTESESSSFHSS [CXCR4] | 814 ± 140
7 | MEHTHAHLAANSSLSWWSPGSACGLGFVPVVYYSLLLCLGLPANILTVIILSQLVARRQKSSYNYLLALAAADILVLFFIVFVDFLLEDFILNMQMPQVPDKIIEVLEFSSIHTSIWITVPLTIDRYIAVCHPLKYHTVSYPARTRKVIVSVYITCFLTSIPYYWWPNIWTEDYISTSVHHVLIWIHCFTVYLVPCSIFFILNSIIVYKLRRKSNFRLRGYSTGKTTAILFTITSIFATLWAPRIIMILYHLYGAPIQNRWLVHIMSDIANMLALLNTAINFFLYCFISKRFRTMAAATLKAFFKCQKQPVQFYTNHNFSITSSPWISPANSHCIKMLVYQYDKNGKPIKVSP [GPR139] | 3010 ± 800

same assay, conditions: GPCR class: A (Olfactory)

Row | Sequence | plasma membrane surface immunostaining intensity
8 | MEEAILLNQTSLVTYFRLRGLSVNHKARIAMFSMFLIFYVLTLIGNVLIVITIIYDHRLHTPMYFFLSNLSFIDVCHSTVTVPKMLRDVWSEEKLISFDACVTQMFFLHLFACTEIFLLTVMAYDRYVAICKPLQYMIVMNWKVCVLLAVALWTGGTIHSIALTSLTIKLPYCGPDEIDNFFCDVPQVIKLACIDTHVIEILIVSNSGLISVVCFVVLVVSYAVILVSLRQQISKGKRKALSTCAAHLTVVTLFLGHCIFIYSRPSTSLPEDKVVSVFFTAVTPLLNPIIYTLRNEEMKSALNKLVGRKERKEEK [OR4E1] | 264 ± 95
9 | MEEENATLLTEFVLTGFLYQPQWKIPLFLAFLVIYLITIMGNLGLIAVIWKDPHLHIPMYLLLGNLAFVDALLSSSVTLKMLINFLAKSKMISLSECKIQLFSFAISVTTECFLLATMAYDRYVAICKPLLYPAIMTNGLCIRLLILSYVGGLLHALIHEGFLFRLTFCNSNIIQHFYCDIIPLLKISYTDSSINFLMVFIFAGSIQVFTIGTVLISYIFVLYTILKKKSVKGMRKAFSTCGAHLLSVSLYYGPLAFMYMGSASPQADDQDMMESLFYTVIVPLLNPMIYSLRNKQVIASFTKMFKRNDV [OR5H14] | 116 ± 19
10 | MEEENATLLTEFVLTGFLYQPQWKIPLFLAFLVIYLITIMGNLGLIAVIWKDPHLHIPMYLLLGNLAFVDAWISSTVTPKMLNNFLAKSKMISLSECKIQFFSFAISVTTECFLLATMAYDRYVAICKPLLYPAIMTNGLCIRLLILSYVGGILHALIHEGFLFRLTFCNSNIVHHIYCDTIPLSKISCTDSSINFLMVFIFSGSIQVFSIVTILVSYTFVLFAILKKKSDKGVRKAFSTCGAHLFSVSLYYGPLLFIYVGPASPQADDQDMVEPLFYTVIIPLLNPIIYSLRNKQVTVSFTKMLKKHVKVSY [OR5H1] | 124 ± 20
11 | MEEENATLLTEFVLTGFLYQPQWKIPLFLAFLVIYLITIMGNLGLIAVIWKDPHLHIPMYLLLGNLAFVDAWISSTVTPKMLNNFLAKSKMISLSECKIQFFSIAIGVTTECFLLATMAYDRYVAICKPLLYPAIMTNGLCIRLLILSYIAGILHALIHEGFLFRLTFCNSNIVHHIYCDTIPLSKISCTDSSINFLMVFIFSGSIQVFSIVTILISYTFVLFTVLEKKSDKGVRKAFSTCGAHLFSVCLYYGPLLLMYVGPASPQADGQNMVEPLFYTVIIPLLNPIIYSLRNKQVIVSFIKMLKRNVKVSY [OR5H15] | 181 ± 56
12 | MEETNNSSEKGFLLLGFSDQPQLERFLFAIILYFYVLSLLGNTALILVCCLDSRLHTPMYFFLSNLSCVDICFTTSVAPQLLVTMNKKDKTMSYGGCVAQLYVAMGLGSSECILLAVMAYDRYAAVCRPLRYIAIMHPRFCASLAGGAWLSGLITSLIQCSLTVQLPLCGHRTLDHIFCEVPVLIKLACVDTTFNEAELFVASVVFLIVPVLLILVSYGFITQAVLRIKSAAGRQKAFGTCSSHLVVVIIFYGTIIFMYLQPANRRSKNQGKFVSLFYTIVTPLLNPIIYTLRNKDVKGALRTLILGSAAGQSHKD [OR2G6] | 122 ± 18
13 | MEGNKTWITDITLPRFQVGPALEILLCGLFSAFYTLTLLGNGVIFGIICLDCKLHTPMYFFLSHLAIVDISYASNYVPKMLTNLMNQESTISFFPCIMQTFLYLAFAHVECLILVVMSYDRYADICHPLRYNSLMSWRVCTVLAVASWVFSFLLALVPLVLILSLPFCGPHEINHFFCEILSVLKLACADTWLNQVVIFAACVFILVGPLCLVLVSYLRILAAILRIQSGEGRRKAFSTCSSHLCVVGLFFGSAIVTYMAPKSRHPEEQQKVLSLFYSLFNPMLNPLIYSLRNAEVKGALRRALRKERLT [OR2A14] | 121 ± 40
14 | MEGNQTWITDITLLGFQVGPALAILLCGLFSVFYTLTLLGNGVIFGIICLDSKLHTPMYFFLSHLAIIDMSYASNNVPKMLANLMNQKRTISFVPCIMQTFLYLAFAVTECLILVVMSYDRYVAICHPFQYTVIMSWRVCTILVLTSWSCGFALSLVHEILLLRLPFCGPRDVNHLFCEILSVLKLACADTWVNQVVIFATCVFVLVGPLSLILVSYMHILGAILKIQTKEGRIKAFSTCSSHLCVVGLFFGIAMVVYMVPDSNQREEQEKMLSLFHSVFNPMLNPLIYSLRNAQLKGALHRALQRKRSMRTVYGLCL [OR2A2] | 129 ± 17
15 | MEIVSTGNETITEFVLLGFYDIPELHFLFFIVFTAVYVFIIIGNMLIIVAVVSSQRLHKPMYIFLANLSFLDILYTSAVMPKMLEGFLQEATISVAGCLLQFFIFGSLATAECLLLAVMAYDRYLAICYPLHYPLLMGPRRYMGLVVTTWLSGFVVDGLVVALVAQLRFCGPNHIDQFYCDFMLFVGLACSDPRVAQVTTLILSVFCLTIPFGLILTSYARIVVAVLRVPAGASRRRAFSTCSSHLAVVTTFYGTLMIFYVAPSAVHSQLLSKVFSLLYTVVTPLFNPVIYTMRNKEVHQALRKILCIKQTETLD [OR11A1] | 398 ± 120
16 | MEKANETSPVMGFVLLRLSAHPELEKTFFVLILLMYLVILLGNGVLILVTILDSRLHTPMYFFLGNLSFLDICFTTSSVPLVLDSFLTPQETISFSACAVQMALSFAMAGTECLLLSMMAFDRYVAICNPLRYSVIMSKAAYMPMAASSWAIGGAASVVHTSLAIQLPFCGDNVINHFTCEILAVLKLACADISINVISMEVTNVIFLGVPVLFISFSYVFIITTILRIPSAEGRKKVFSTCSAHLTVVIVFYGTLFFMYGKPKSKDSMGADKEDLSDKLIPLFYGVVTPMLNPIIYSLRNKDVKAAVRRLLRPKGFTQ [OR2S2] | 120 ± 24
